Measured values published in PMC10208891.

Legend:
[1] = anti-Flag immunofluorescence with DAPI; details: glycan lost; control: SFB-YTHDF1-WT, untreated
[2] = nuclear and cytoplasmic fractionation, immunoblot; details: glycan lost; control: SFB-YTHDF1-WT

B1: YTH domain family 1 (YTHDF1): AFA (protein)
parent chain: MSATSVDTQRTKGQDNKVQNGSLHQKDTVHDNDFEPYLTGQSNQSNSYPSMSDPYLSSYYPPSIGFPYSLNEAPWSTAGDPPIPYLTTYGQLSNGDHHFMHDAVFGQPGGLGNNIYQHRFNFFPENPAFSAWGTSGSQGQQTQSSAYGSSYTYPPSSLGGTVVDGQPGFHSDTLSKAPGMNSLEQGMVGLKIGDVSSSAVKTVGSVVSSVALTGVLSGNGGTNVNMPVSKPTSWAAIASKPAKPQPKMKTKSGPVMGGGLPPPPIKHNMDIGTWDNKGPVPKAPVPQQAPSPQAAPQPQQVAQPLPAQPPALAQPQYQSPQQPPQTRWVAPRNRNAAFGQSGGAGSDSNSPGNVQPNSAPSVESHPVLEKLKAAHSYNPKEFEWNLKSGRVFIIKSYSEDDIHRSIKYSIWCSTEHGNKRLDSAFRCMSSKGPVYLLFSVNGSGHFCGVAEMKSPVDYGTSAGVWSQDKWKGKFDVQWIFVKDVPNNQLRHIRLENNDNKPVTNSRDTQEVPLEKAKQVLKIISSYKHTTSIFDDFAHYEKRQEEEEVVRKERQSRNKQ
For B1, the localisation_or_trafficking [1] was “changes” and the localisation_or_trafficking [2] was “changes”.
